# Results reported in patent US20120114667A1 (AstraZeneca / MedImmune, published 2012).
# Legend:
# [1] = biological target: T1, α4β1 integrin on J6.77 Jurkat cells (UniProt P13612 34-1032; P05556 21-798); experiment: cell-based or functional assay
# [2] = biological target: T2, β1 integrin chain on HT29 cells (α5 null line) (human, UniProt P05556 21-798); experiment: FACS on HT29 cells (no α5, β1 present)
# T2 construct: whole, on cells; β1 is paired with alpha chains other than α5 on these cells; also called β1 chain; beta1
# T2 sequence (P05556 21-798): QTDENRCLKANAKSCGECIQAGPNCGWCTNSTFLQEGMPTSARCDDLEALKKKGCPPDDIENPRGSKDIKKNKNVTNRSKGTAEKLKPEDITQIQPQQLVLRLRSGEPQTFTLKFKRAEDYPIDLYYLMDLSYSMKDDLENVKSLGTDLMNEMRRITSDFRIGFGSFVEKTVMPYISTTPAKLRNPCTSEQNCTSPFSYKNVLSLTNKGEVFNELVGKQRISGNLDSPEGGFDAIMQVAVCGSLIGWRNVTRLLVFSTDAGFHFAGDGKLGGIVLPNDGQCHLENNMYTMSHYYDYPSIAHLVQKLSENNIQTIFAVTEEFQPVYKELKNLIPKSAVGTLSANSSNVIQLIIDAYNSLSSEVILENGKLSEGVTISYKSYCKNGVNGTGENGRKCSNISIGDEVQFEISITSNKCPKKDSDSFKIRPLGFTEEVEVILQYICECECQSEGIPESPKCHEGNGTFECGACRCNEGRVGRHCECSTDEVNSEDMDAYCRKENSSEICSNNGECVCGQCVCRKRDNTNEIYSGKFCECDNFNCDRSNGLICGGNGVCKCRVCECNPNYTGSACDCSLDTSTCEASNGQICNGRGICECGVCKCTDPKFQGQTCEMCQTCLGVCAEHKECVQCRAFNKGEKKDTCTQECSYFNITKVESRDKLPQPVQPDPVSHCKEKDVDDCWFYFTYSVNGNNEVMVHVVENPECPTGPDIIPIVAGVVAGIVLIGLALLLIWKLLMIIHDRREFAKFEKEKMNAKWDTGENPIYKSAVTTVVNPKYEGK
# Method: To confirm the antibodies bind to the α5 chain or to the α5β1 heterodimer, binding to Human colon adenocarcinoma grade II cells (HT29 cells) was assessed by FACS. […] HT-29 cells were suspended in HBSS with 1% BSA and 1 mM final MnCL₂ at a concentration of 6×10⁵ cells/ml.12.5 uL of the primary antibody was added to 37.5 ul of cells and the plate incubated on ice for 60 minutes. A range of negative controls were included as described previously (indicated as below). In addition as a positive control antibodies to αvβ6 (Mab2077, Chemicon), α5β1 (Mab1909, Chemicon) and av (L230, Chemicon) were included. 100 uL of HBSS buffer was added to dilute primary antibody, the cells pelleted by centrifuging at 1500 rpm for 3 minutes and resuspended in 50 ul Goat anti-human IgG Fc Cy5 or Goat anti Mouse IgG Fc Cy5 secondary at 2 ug/mL. They were then incubated on ice for a further 7 minutes, and 100 uL of HBSS buffer was added to dilute secondary antibody. Finally cells were pelleted by centrifuging at 1500 rpm for 3 minutes, HBSS Buffer/secondary supernatant removed, washed twice in 100 ul of FACS buffer was added and the cells were resuspended and then read on a FACS Calibur HTS. Samples were analyzed using Cell Quest Pro software. The data is represented in Table 6 and confirm that the antibodies are selective for α5β1.
# [3] = biological target: T3, human α5β1 integrin (human, UniProt P08648 42-1049; P05556 21-798); experiment: cell-based or functional assay
# T3 sequence (P08648 42-1049, chain 1 of 2): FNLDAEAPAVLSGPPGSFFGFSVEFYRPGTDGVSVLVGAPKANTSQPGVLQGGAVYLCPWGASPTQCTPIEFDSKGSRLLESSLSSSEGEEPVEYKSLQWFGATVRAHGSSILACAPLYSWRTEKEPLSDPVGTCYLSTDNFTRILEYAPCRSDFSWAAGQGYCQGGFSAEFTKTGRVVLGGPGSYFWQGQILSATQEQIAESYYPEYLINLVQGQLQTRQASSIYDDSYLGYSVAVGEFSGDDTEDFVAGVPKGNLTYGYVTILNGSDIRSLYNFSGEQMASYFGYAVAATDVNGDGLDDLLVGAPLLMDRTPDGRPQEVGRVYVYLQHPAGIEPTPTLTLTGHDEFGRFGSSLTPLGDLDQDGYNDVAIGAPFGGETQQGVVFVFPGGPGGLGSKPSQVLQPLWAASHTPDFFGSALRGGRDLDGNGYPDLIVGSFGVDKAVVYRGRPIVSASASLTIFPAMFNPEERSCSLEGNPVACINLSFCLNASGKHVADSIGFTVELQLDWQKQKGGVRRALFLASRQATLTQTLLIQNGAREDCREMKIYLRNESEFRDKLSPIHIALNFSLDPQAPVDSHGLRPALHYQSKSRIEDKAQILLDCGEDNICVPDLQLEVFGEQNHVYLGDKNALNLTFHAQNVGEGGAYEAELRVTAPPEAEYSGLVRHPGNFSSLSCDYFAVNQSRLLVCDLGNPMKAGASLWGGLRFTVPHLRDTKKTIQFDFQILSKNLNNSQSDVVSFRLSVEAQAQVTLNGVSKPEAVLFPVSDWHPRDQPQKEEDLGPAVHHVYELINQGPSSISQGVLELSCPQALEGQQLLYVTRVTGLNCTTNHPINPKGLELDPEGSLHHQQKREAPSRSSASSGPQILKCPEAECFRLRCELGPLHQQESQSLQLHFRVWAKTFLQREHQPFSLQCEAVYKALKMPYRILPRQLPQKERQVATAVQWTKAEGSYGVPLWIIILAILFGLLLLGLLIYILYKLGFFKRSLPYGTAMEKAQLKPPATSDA
# T3 sequence (P05556 21-798, chain 2 of 2): as the sequence (P05556 21-798) above
# [4] = biological target: T4, Macaque α5β1 (Macaque); experiment: FACS on macaque PBMC, 1 mM Mn2+
# T4 construct: whole, on cells; macaque species not specified; also called monkey α5β1; monkey integrin
# Method: To determine whether the antibodies cross reacted to monkey integrin, binding to purified Macaque T-cells was assessed. Macaque PBMCs were previously purified from whole blood, and stored frozen. Macaque PBMCs were suspended in adhesion buffer with HBSS 1% BSA and 1 mM Mn2+ (“FACS buffer”), at a concentration of 4.8×10⁵ live cells per ml. 12.5 uL of the primary antibody was added to 37.5 ul of cells, and incubated at 4° C. for 1 hour. Positive and negative controls were included as indicated. 100 uL of FACs buffer is added to dilute out primary antibody, the cells washed and resuspended in the appropriate secondary at 2 ug/mL (50 uL) with 10 ug/mL 7AAD, and stained on ice for 7 minutes. 100 uL of FACs buffer was added and cells were washed twice in FACS buffer, finally the supernatant removed and the cells were resuspended in 100 uL of buffer.
# Samples were read on HTS FACS machine and analyzed using Cell Quest Pro software. The data shown in Table 7 confirm that the antibodies cross react with monkey α5β1.
# [5] = biological target: T3, human α5β1 integrin; experiment: cell-based or functional assay; remark: listed apart in the source
# [6] = biological target: T1, α4β1 integrin on J6.77 Jurkat cells; experiment: cell-based or functional assay; remark: listed apart in the source
# T1 sequence (P13612 34-1032, chain 1 of 2): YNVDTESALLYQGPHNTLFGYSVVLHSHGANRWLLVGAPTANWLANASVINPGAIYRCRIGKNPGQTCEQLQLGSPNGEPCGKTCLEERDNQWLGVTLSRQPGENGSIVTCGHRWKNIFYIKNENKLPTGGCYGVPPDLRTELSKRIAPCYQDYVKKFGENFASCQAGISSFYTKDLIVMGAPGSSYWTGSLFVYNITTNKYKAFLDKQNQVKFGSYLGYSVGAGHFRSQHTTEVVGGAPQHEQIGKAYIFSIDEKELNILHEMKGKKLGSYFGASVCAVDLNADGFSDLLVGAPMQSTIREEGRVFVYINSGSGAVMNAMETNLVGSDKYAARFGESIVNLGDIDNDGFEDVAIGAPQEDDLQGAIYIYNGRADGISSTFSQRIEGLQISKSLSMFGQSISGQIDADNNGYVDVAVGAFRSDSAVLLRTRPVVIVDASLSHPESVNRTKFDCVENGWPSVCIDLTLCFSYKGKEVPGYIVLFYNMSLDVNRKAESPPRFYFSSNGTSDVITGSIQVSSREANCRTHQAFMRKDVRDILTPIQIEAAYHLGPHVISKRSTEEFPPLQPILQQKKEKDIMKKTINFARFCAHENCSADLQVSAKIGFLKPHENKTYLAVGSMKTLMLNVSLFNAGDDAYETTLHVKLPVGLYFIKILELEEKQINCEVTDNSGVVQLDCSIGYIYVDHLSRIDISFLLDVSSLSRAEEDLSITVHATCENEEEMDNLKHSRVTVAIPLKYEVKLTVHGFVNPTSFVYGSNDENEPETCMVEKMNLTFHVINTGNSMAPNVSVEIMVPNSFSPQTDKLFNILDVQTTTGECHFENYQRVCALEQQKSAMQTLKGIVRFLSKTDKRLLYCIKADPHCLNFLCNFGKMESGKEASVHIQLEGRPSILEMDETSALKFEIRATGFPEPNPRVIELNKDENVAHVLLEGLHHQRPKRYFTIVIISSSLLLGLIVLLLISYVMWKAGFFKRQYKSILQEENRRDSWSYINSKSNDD
# T1 sequence (P05556 21-798, chain 2 of 2): as the sequence (P05556 21-798) above
Binder,% Inhibition of adhesion CS1 n = 1 (J6.77 Jurkat on GST-CS-1) [1] [%],% Inhibition of adhesion CS1 n = 2 (J6.77 Jurkat on GST-CS-1) [1] [%],Binding Geomean [2],binding result [2],% Inhibition of cell adhesion n = 1 (K562 on full length FN) [3] [%],% Inhibition of cell adhesion n = 2 (K562 on full length FN) [3] [%],"% Inhibition of cell adhesion n = 3 (K562 on GST-FNIII(9-10), no pre-incubation) [3] [%]","% Inhibition of cell adhesion n = 4 (K562 on GST-FNIII(9-10), supernatant 1 in 10) [3] [%]","% Inhibition of cell adhesion n = 5 (K562 on GST-FNIII(9-10), supernatant 1 in 10) [3] [%]",Geo Mean on Macaque T-cells IgG detection [4],IC50 ng/mL (K562 adhesion to GST-FNIII(9-10)) [5] [ng/mL],Average % inhibition at 5 ug/ml (J6 adhesion to GST-CS-1) [6] [%]
"2E10.1B9 (antibody, IgG2, V domains shown) VH: RVQLQESGPGLVKPTQTLSLTCTVSGGSIISGGYFWTWIRQHPGKGLEWIGYIYYSGSTYYSPSLKSRVTISVDTSKNQFSLKLSSVTAADTAVYYCTRAVPAAKGYYSYYGMDVWGQGTTVTVSS VL: not shown",31,-5,3.11,no binding,97,94,96,86,87,12,,
"3C2.2A8 (antibody, IgG2, V domains shown, also called mAb 3C2.2A8) VH: RVQLQESGPGLVKPTQTLSLTCTVSGGSIISGGYFWTWIRQHPGKGLEWIGYIYYSGSTYYSPSLKSRVTISVDTSKNQFSLKLSSVTAADTAVYYCTRAVPAAKGYYSYYGMDVWGQGTTVTVSS VL: not shown",22,18,3.29,no binding,99,100,102,94,96,10,12.4,1
"2C5.2B12 (antibody, IgG2, V domains shown) VH: RVQLQESGPGLVKPTQTLSLTCTVSGGSIISGGYFWTWIRQHPGKGLEWIGYIYYSGSTYYSPSLKSRVTISVDTSKNQFSLKLSSVTAADTAVYYCTRAVPAAKGYYSYYGMDVWGQGTTVTVSS VL: not shown",14,-5,3.6,no binding,100,96,101,96,97,11,11.9,18
"2A9.1A1 (antibody, IgG2, V domains shown) VH: RVQLQESGPGLVKPTQTLSLTCTVSGGSIISGGYFWTWIRQHPGKGLEWIGYIYYSGSTYYSPSLKSRVTISVDTSKNQFSLKLSSVTAADTAVYYCTRAVPAAKGYYSYYGMDVWGQGTTVTVSS VL: not shown",2,11,4.73,no binding,100,94,96,94,100,12,14.1,-19
"3G11.1A6 (antibody, IgG2, V domains shown) VH: RVQLQESGPGLVKPTQTLSLTCTVSGSSIISGGYFWTWIRQHPGKGLEWIGYIYYSGSTYYSPSLKSRVTISVDTSKNQFSLKLSSVTAADTAVYYCTRAVPAAKGYYSYYGMDVWGQGTTVTVSS VL: not shown",17,9,3.02,no binding,99,99,93,92,100,13,9,-2
"7B2.3B10 (antibody, IgG4, V domains shown) VH: QVQLVESGGGVVQPGRSLRLSCAASGFTFSSYGMHWVRQAPGKGLEWVAVIWYDGSYKYYADSVQGRFTISRDNSKNTLYLQMNSLRAEDTAVYYCARDKGGHYFDYWGQGTLVTVSS VL: DIQMTQSPSSLSASVGDRVTITCRASQSISSYLNWYQQKPGKAPKLLIYAASSLQSGVPSRFSGSGSGTDFTLTISSLQPEDFATYYCQQNFSFPPEWTFGQGTKVEIK",45,21,3.1,no binding,93,100,94,85,75,12,57,-14
"2F5.1A4 (antibody, IgG2, V domains shown) VH: QMQLVQSGAEVKKPGASVKVSCKASGYTFTGYYMHWVRQAPGQGLEWMGWINTNSGGTNCAQKFQVRVTMTRDTSISTAYMELSRLRSDDTAVYYCARGRGYSSGWYDYWGQGTLVTVSS VL: not shown",31,-8,2.94,no binding,96,100,103,91,84,13,97.8,-12
"9E2.3A8 (antibody, IgG4, V domains shown) VH: not shown VL: DIVMTQSPDSLAVSLGERATINCKSSQSVLHNSHNENYLTWYQQKPGQPPKLLIYWASSRESGVPDRFSGSGSGTDFTLSISSLQADDVAVYYCQQYFSNPWTFGQGTKVEIK",40,10,2.86,no binding,98,100,94,94,87,12,73.4,2
"8A6.1A3 (antibody, IgG4, V domains shown) VH: not shown VL: DIVMTQSPDSLAVSLGERATINCKSSQSVFFSSSNENYLTWYQQKPGQPPKLLIYWASTRESGVPDRFSGSGSGTDFTLTISSLQAEDVAVYYCQQYYNIPWTFGQGTKVEIK",24,9,2.99,no binding,99,95,91,92,90,11,52.2,-23
